Laboratory results: patent publication US20160176924A1 (UNIVERSITY OF COPENHAGEN, published 2016)
Where two headings read alike, the source gives them in different places. Square brackets hold non-standard residues; d marks the D form. Primed or numbered codes have the meaning given here. Ends that are not written are not given here. * marks the point of attachment. PEG6‑diacid = 4,7,10,13,16,19,22-Heptaoxapentacosane-1,25-dioic acid, O=C(O)CCOCCOCCOCCOCCOCCOCCOCCC(=O)*; PEG8‑diacid = PEG8-diacid linker: 4,7,10,13,16,19,22,25,28-nonaoxahentriacontane-1,31-dioic acid; cyclohexylethyl″ = cyclohexylethyl group on the nitrogen (N-alkyl substituent), C1CCC(CC*)CC1; PEG4‑diacid = 4,7,10,13,16-pentaoxanonadecane-1,19-dioic acid; (naphthalen-2-yl)ethyl = c1ccc2cc(CC*)ccc2c1; Cyclohexylmethyl = C1CCC(C*)CC1; NMeE = CN[C@@H](CCC(=O)O)C(=O)O; cyclohexylethyl = C1CCC(CC*)CC1; NMeA = CN[C@@H](C)C(=O)O; Bn = c1ccc(C*)cc1

Experiments:
[1] = biological target: T1, HIS-PDZ3 protein (PSD-95 PDZ3, residues 309-401, with tag …) (human, UniProt P78352 309-401); test: FP competition, fluorescent CRIPT probe
[2] = biological target: T1, HIS-PDZ3 protein (PSD-95 PDZ3, residues …); test: FP competition, fluorescent CRIPT probe; remark: listed apart in the source
[3] = biological target: T2, HIS-PDZ1 protein (PSD-95 PDZ1, residues 61-151, with tag …) (human, UniProt P78352 61-151); test: FP competition, fluorescent NR2B probe
T2 construct: expressed in E. coli

[4] = biological target: T3, HIS-PDZ2 protein (PSD-95 PDZ2, residues 155-249, with tag …) (human, UniProt P78352 155-249); test: FP competition, fluorescent NR2B probe
[5] = biological target: T2, HIS-PDZ1 protein (PSD-95 PDZ1, residues …); test: FP competition, fluorescent NR2B probe; remark: listed apart in the source
[6] = biological target: T3, HIS-PDZ2 protein (PSD-95 PDZ2, residues …); test: FP competition, fluorescent NR2B probe; remark: listed apart in the source
[7] = biological target: T2, HIS-PDZ1 protein (PSD-95 PDZ1, residues …); test: FP competition assay (Ki), fluorescent NR2B probe displaced from the PDZ domain; bar chart
[8] = biological target: T3, HIS-PDZ2 protein (PSD-95 PDZ2, residues …); test: as above
[9] = biological target: T2, HIS-PDZ1 protein (PSD-95 PDZ1, residues …); test: FP competition, fluorescent NR2B probe; remark: listed apart in the source
[10] = biological target: T3, HIS-PDZ2 protein (PSD-95 PDZ2, residues …); test: FP competition, fluorescent NR2B probe; remark: listed apart in the source
[11] = biological target: T4, HIS-PDZ1-2 protein (PSD-95 PDZ1-2 tandem, residues 61-249, with tag …) (human, UniProt P78352 61-249); test: FP competition, fluorescent NR2B probe
[12] = biological target: T4, HIS-PDZ1-2 protein (PSD-95 PDZ1-2 …); test: ITC
[13] = biological target: T3, HIS-PDZ2 protein (PSD-95 PDZ2, residues …); test: FP competition, fluorescent NR2B probe; remark: listed apart in the source
[14] = biological target: T4, HIS-PDZ1-2 protein (PSD-95 PDZ1-2 …); test: FP competition, fluorescent NR2B probe; exact Ki not calculable

ETAV [ETAV (51)]
Ki [1]: 260 µM | Ki [2]: 260 µM

QTDV [QTDV (65)]
Ki [3]: 58 µM | Ki [4]: 60 µM | binding result [2]: no binding

ATDV [ATDV (66)]
Ki [3]: 30 µM | Ki [4]: 38 µM | binding result [2]: no binding

ATAV [ATAV (68)]
Ki [3]: 64 µM | Ki [4]: 73 µM | Ki [2]: 400 µM

Et-ETAV [N-Ethyl-ETAV (52)]
Ki [5]: 9.3 µM | Ki [6]: 9.6 µM | Ki [1]: 69 µM

Cyclohexylmethyl-ETAV [N-Cyclohexylmethyl-ETAV (55)]
Ki [5]: 1 µM | Ki [6]: 1.3 µM | Ki [1]: 21 µM

B1: ETDV (64) (peptide)
peptide: ETDV
notes: also called 28 (ESDV with Ser P^-2 replaced by Thr)
binding result [2]: no binding

{(naphthalen-2-yl)ethyl}-ETAV [N-(Naphtalene-2-yl)ethyl-ETAV (63)]
Ki [5]: 1 µM | Ki [6]: 0.95 µM | Ki [1]: 10 µM

cyclohexylethyl-QTAV [QTAV (72), N-cyclohexylethyl]
Ki [3]: 21 µM | Ki [4]: 12 µM | Ki [2]: 141 µM

phenylpropyl-ETAV [N-Phenylpropyl-ETAV (60)]
Ki [6]: 3.1 µM

QTAV [QTAV (67)]
Ki [3]: 112 µM | Ki [4]: 108 µM

B2: ATDV (71), N-cyclohexylethyl (peptide)
peptide: {cyclohexylethyl″}-ATDV-OH
SMILES: CC(C)[C@H](NC(=O)[C@H](CC(=O)O)NC(=O)[C@@H](NC(=O)[C@H](C)NCCC1CCCCC1)[C@@H](C)O)C(=O)O
Ki [3]: 5.8 µM | Ki [4]: 3.6 µM

Bn-ETAV [N-Benzyl-ETAV (58)]
Ki [5]: 7.2 µM | Ki [6]: 5.2 µM | Ki [1]: 63 µM

[NMeE]TNV [Compound 38 (EMeTXV with X = Asn)]
binding result [7]: binds | binding result [8]: binds

butyl-ETAV [N-Butyl-ETAV (54)]
Ki [5]: 8.4 µM | Ki [6]: 4 µM

[NMeE]TQV [EMeTQV (39)]
fold more potent than WT peptide 1 [9]: ~3 fold

B3: N-(3,4-Dichlorophenyl)propyl-ETAV (61) (peptide)
peptide: ETAV
modifications: not fully specified
notes: The printed formula C25H37Cl2N4O8 and the comparison with 59 point to an ethyl spacer, the printed name says propyl
Ki [5]: 2.4 µM | Ki [6]: 1.1 µM | Ki [1]: 6.7 µM

Phenylethyl-ETAV [N-Phenylethyl-ETAV (59)]
Ki [6]: 1.6 µM

{cyclohexylethyl″}-QTDV-OH [QTDV (70), N-cyclohexylethyl]
binding result [2]: no binding

[NMeE]TDV [EMeTDV (36)]
fold more potent than WT peptide 1 [9]: ~3 fold

ESEV [Compound 23 (ESDV with Asp P^-1 replaced by Glu)]
binding result [9]: binds | binding result [10]: binds

B4: ETDV (69), N-cyclohexylethyl (peptide)
peptide: {cyclohexylethyl″}-ETDV-OH
SMILES: CC(C)[C@H](NC(=O)[C@H](CC(=O)O)NC(=O)[C@@H](NC(=O)[C@H](CCC(=O)O)NCCC1CCCCC1)[C@@H](C)O)C(=O)O
Ki [3]: 1.8 µM | Ki [4]: 0.75 µM | binding result [2]: no binding

cyclohexylethyl-ATAV [ATAV (73), N-cyclohexylethyl]
Ki [3]: 8.9 µM | Ki [4]: 8.1 µM | Ki [2]: 89 µM

B5: N-(3,4-Difluorophenyl)propyl-ETAV (62) (peptide)
peptide: ETAV
modifications: not fully specified
notes: The printed formula C25H37F2N4O8 points to an ethyl spacer, the printed name says propyl
Ki [5]: 0.98 µM | Ki [6]: 1 µM | Ki [1]: 7.8 µM

ETQV (number 32 only on the sheet) [ETQV (32)]
binding result [7]: binds | binding result [8]: binds

cyclohexylethyl-ETAV [N-Cyclohexylethyl-ETAV (56)]
Ki [5]: 0.94 µM | Ki [6]: 0.45 µM | Ki [3]: 0.94 µM | Ki [4]: 0.45 µM | Ki [1]: 11 µM | Ki [2]: 11 µM

ETNV (number 31 only on the sheet) [ETNV (31)]
binding result [7]: binds | binding result [8]: binds

ESNV [Compound 24 (ESDV with Asp P^-1 replaced by Asn)]
binding result [9]: binds | binding result [10]: binds

ESQV [Compound 22 (ESDV with Asp P^-1 replaced by Gln)]
binding result [9]: binds | binding result [10]: binds

B6: Compound 84 (ESDV dimerized with PEG12) (peptide)
peptide: ESDV
modifications: also: dimer: two peptides joined at N-terminal amines by amide bonds through a PEG12-diacid linker
notes: Dimeric ligand
Ki [11]: 0.92 µM

{PEG2‑diacid}-IESDV (also: dimer: two peptides N-terminally joined via PEG2-diacid, Dimeric ligand) [Compound 79 (IESDV dimerized with PEG2-diacid)]
Kd [12]: 0.22 µM | Ki [13]: 4.7 µM | Ki [11]: 0.27 µM

{PEG4‑diacid}-IAT[NMeA]V-OH (also: dimer: two peptides N-terminally joined via PEG4-diacid, Dimeric ligand) [(IATAMeV)2PEG4 (90)]
Ki [13]: 103 µM | Ki [11]: 13 µM

IAT[NMeA]V [IATAMeV (89)]
Ki [13]: 104 µM | Ki [11]: 142 µM

B7: (IATAV)2PEG4 (88) (peptide)
peptide: IATAV
modifications: also: dimer: two peptides joined at N-terminal amines by amide bonds through a PEG4-diacid linker
notes: Dimeric ligand
Ki [11]: 1.1 µM

B8: (IATAV)2PEG12 (87) (peptide)
peptide: IATAV
modifications: also: dimer: two peptides joined at N-terminal amines by amide bonds through a PEG12-diacid linker
notes: Dimeric ligand
Ki [13]: 13 µM | Ki [11]: 1 µM

{PEG1‑diacid}-IESDV (also: dimer: two peptides N-terminally joined via PEG1-diacid, Dimeric ligand) [Compound 80 (IESDV dimerized with PEG1-diacid)]
Kd [12]: 0.46 µM | Ki [13]: 4.7 µM | Ki [11]: 0.56 µM

B9: Compound 85 (ESDV dimerized with PEG8) (peptide)
peptide: ESDV
modifications: also: dimer: two peptides joined at N-terminal amines by amide bonds through a PEG8-diacid linker
notes: Dimeric ligand
Ki [13]: 19 µM | Ki [11]: 1 µM

{PEG6‑diacid}-IESDV (also: dimer: two peptides N-terminally joined via PEG6-diacid, Dimeric ligand) [(IESDV)2PEG6 (77)]
Kd [12]: 0.039 µM | Ki [13]: 2 µM | Ki [14]: ~0.1 µM

{PEG8‑diacid}-IESDV (also: dimer: two peptides N-terminally joined via PEG8-diacid, Dimeric ligand) [(IESDV)2PEG8 (76)]
Kd [12]: 0.12 µM | Ki [13]: 2.6 µM | Ki [14]: ~0.1 µM

[NMeE]SDV [Compound 18 (ESDV with N-methylated Glu at P^-3)]
fold higher Ki compared to peptide 1 [9]: 1.3 fold | fold higher Ki compared to peptide 1 [10]: 3.7 fold
